{
  "source": "patent US20130252987A1",
  "about": "“METHOD OF REGULATING PLASMA LIPOPROTEINS” (MCMASTER UNIVERSITY, priority 2010, published 2013)",
  "molecules": {"B1": {"name": "human resistin: recombinant lyophilized purified human resistin (Calbiochem); cysteine-rich cytokine, single 12 kDa band (protein)", "chain": "KTLCSMEEAINERIQEVAGSLIFRAISSIGLECQSVTSRGDLATCPRGFAVTGCTCGSACGSWDVRAETTCHCQCAGMDWTGARCCRVQP"}},
  "key": {"HepG2 cells [1]": {"tested_on": "HepG2 cells", "test": "Oil-Red-O staining of neutral lipid", "assay_type": "cell-based, human", "settings": "50 ng/mL, 24 hours, versus untreated", "description": "Cells were stained with Oil-Red-0 to examine the amount of neutral lipid accumulation in the cells as described by Ferre et al. (Am. J. Physiol Gastrointest. Liver Physiol. 296:G553-G562). Briefly, dishes were washed with cold phosphate-buffered saline and fixed in 10% neutral formalin. After 2 changes of propylene glycol, Oil-Red-0 was added with agitation for 7 minutes, followed by washing in 85% propylene glycol. The dishes were then rinsed in distilled water and counterstained with hematoxylin. For each dish, 3 images were photographed, and a representative image is shown.\nTo determine if the deleterious effects of human resistin extend not only to increased secretion of apoB-containing lipoproteins by human hepatocytes, but also to increased hepatocyte lipid content, as the two processes frequently occur together in such conditions as obesity, insulin resistance and type 2 diabetes mellitus. Oil-Red-O/hematoxylin staining of HepG2 cells either untreated, treated with 100 μM oleate for 24 hours as a positive control, or treated with 50 ng/mL human resistin for 24 hours was performed. […] The increased cell neutral lipid content with resistin treatment was similar in magnitude to that observed with 100 μM oleate treatment."}, "HepG2 cells [2]": {"tested_on": "HepG2 cells", "test": "apoB and apolipoprotein expression and secretion, immunoprecipitation and Western blot", "assay_type": "cell-based, human", "description": "During experiments in which HepG2 cells were treated with human recombinant resistin (Calbiochem, UK) the media was changed to 1% FBS-containing DMEM. […] In separate experiments, cells were treated with the fatty acid, oleate (100 μM) (Sigma, ON) for 24 hours, with or without human resistin (50 ng/mL) for 24 hours. In other experiments, cells were treated with the 10 μM lactacystin (Cayman Chemical, Ann Arbor, Mich.) for 24 hours to assess intracellular proteosome-dependent apoB protein degradation.\nHorseradish peroxidase-conjugated antibodies (BioRad, Hercules, Calif.) were used as secondary antibodies.\nAll of the experiments to follow were performed three times and representative results are shown. […] Immunoprecipitation on cell lysates and media, followed by Western blots to detect the cellular expression and secretion of human apoB protein were then performed. The constitutively expressed cellular proteins, beta-actin and albumin were used as internal immunoblot controls to confirm equal protein loading in the apoB immunoblots of cell lysates and media, respectively. […] Treatment with 25 ng/mL resistin further stimulated apoB secretion by approximately 250% compared with untreated cells (FIG. 1A)."}, "HepG2 cells [3]": {"tested_on": "HepG2 cells", "test": "immunoblotting for LDL receptor and PCSK9 in HepG2 cells", "settings": "24 hours", "procedure": "Cells were propagated in 10% FBS-containing DMEM supplemented with 1% penicillin-streptomycin and 0.06% L-glutamine (584 mg/L) at 37° C., 5% CO2. During treatment experiments with human recombinant resistin (Calbiochem, UK) and/or lovastatin (Sigma, Mo.), the media was changed to 1% FBS-containing DMEM. All of the experiments to follow were performed at least three times and representative results are shown. Cells were stimulated with resistin at various doses (0, 10, 25, 50, and 100 ng/mL) for 24 hours or with a single dose at 50 ng/mL resistin. In other experiments, the microsomal triglyceride transfer protein (MTP) inhibitor, CP-346086, was administered at 1.3 nM, either alone or together with resistin (50 ng/mL) for 24 hours. Lovastatin was administered at 1 to 5 μM for 24 hours to stimulate the cells, either alone or in combination with resistin (50 ng/mL). Unless otherwise indicated, all experiments were performed in triplicate in three independent experiments.\nCell lysates collected with RIPA buffer (50 mM Tris, 150 mM sodium chloride, 1% NP-40, 12 mM sodium deoxycholate, 3.5 mM SDS, pH 7.4) and protease inhibitor cocktail (Roche Diagnostics, QC) were analyzed for human LDL receptor and PCSK9 as previously described (Rashid et al. Proc Nall Acad Sci U S A 2005; 102:5374-9). Equivalent amounts of total protein, determined by Bradford reaction was subjected to sodium dodecyl sulfate polyacrylamide gel electrophoresis (SDS-PAGE), transferred onto nitrocellulose membranes (BioRad, CA) and immunoblotted using antibodies against the LDL receptor (Fitzgerald International, CA) and PCSK9 (Cayman Chemicals, MI). Horseradish peroxidase-conjugated antibodies (BioRad, CA) were used as secondary antibodies. Immunoreactive bands were visualized with a chemiluminescence kit (PerkinElmer Life Sciences, MA). The blots were exposed to KODAK Biomax films, and the signal was quantified by densitometry using Quantity One version 4.6.7. software (Bio Rad, CA).\nAll of the experiments were performed at least three times and representative results are shown. Dose-response experiments were performed in HepG2 cells with 0, 10, 25, 50, 75 and 100 ng/mL of human resistin for 24 hours. Western blots were then performed on cell lysates to detect the cellular expression of LDL receptor protein."}, "HepG2 cells [4]": {"tested_on": "HepG2 cells", "test": "electron microscopy of secreted VLDL fraction", "assay_type": "cell-based, human", "settings": "50 ng/mL, 24 hours", "description": "The VLDL lipoprotein fraction was isolated from HepG2 cell media via ultracentrifugation at density of 1.006 g/mL using a Beckman Optima TL ultracentrifuge and 100.4 TLA rotor (Beckman Coulter, Brea, Calif.). Mean particle size for VLDL was then determined using the Hitachi 7000 electron microscope equipped with a AMT XR-60 digital camera. The fixation process for electron microscopy utilized 1% Os04 in a phosphate buffer at pH 7.4 applied to the VLDL fraction for a 30 minute exposure. A small drop of this solution was placed on a 400 mesh copper grid coated with a carbon film and allowed to stand for 3 minutes or until sample has dried. The fixed VLDL were placed on the electron microscope grid for viewing and digitizing. The captured images were taken at 75 KV using a beam current of 25 uA. Digital Images of the VDL were taken at about 50,000×. The mean particle size was then determined by importing the digital images into NIH image J software.\nThe secretion of apoB protein by HepG2 cells increased markedly by approximately 8-fold with human resistin treatment, along with the observed increases in secreted VLDL lipids. […] Furthermore, the quantity of VLDL particles found in a representative […] area was increased markedly in resistin-treated samples by a mean of 10-fold."}},
  "data": [
    {"molecule": "B1", "values": [
      {"measurement": "hepatocyte neutral lipid content", "setting": "HepG2 cells [1]", "result": "clear increase"},
      {"measurement": "increase of hepatic apoB cellular protein expression and secretion versus control, untreated HepG2 cells", "setting": "HepG2 cells [2]; 10 ng/mL resistin, 24 hours", "result": "~100", "unit": "%"},
      {"measurement": "stimulation of apoB secretion compared with untreated cells", "setting": "HepG2 cells [2]; 25 ng/mL resistin, 24 hours", "result": "approximately 250%"},
      {"measurement": "effect on the stimulatory effect of oleate on hepatic cellular apoB expression and secretion", "setting": "HepG2 cells [2]; 50 ng/mL resistin added to 100 μM oleate, 24 hours", "result": "doubled"},
      {"measurement": "apoB expression or secretion on addition to lactacystin", "setting": "HepG2 cells [2]; 50 ng/mL resistin added to lactacystin 10 μM, 24 hours", "result": "did not further increase"},
      {"measurement": "increase in cellular apoB protein expression versus untreated cells", "setting": "HepG2 cells [2]; 50 ng/mL resistin, 24 hours", "result": "approximately 3500%"},
      {"measurement": "increase in secreted apoB versus untreated cells", "setting": "HepG2 cells [2]; 50 ng/mL resistin, 24 hours", "result": 1000, "unit": "%"},
      {"measurement": "apoB secretion above untreated HepG2 cells", "setting": "HepG2 cells [2]; 50 ng/mL resistin, after 48 hours, no restimulation", "result": 100, "unit": "%"},
      {"measurement": "earliest time of increase in apoB protein secretion into HepG2 cell media", "setting": "HepG2 cells [2]; 50 ng/mL resistin, time course", "result": 4, "unit": "h"},
      {"measurement": "time of maximal cumulative effect on apoB protein expression in the media", "setting": "HepG2 cells [2]; 50 ng/mL resistin, time course", "result": 24, "unit": "h"},
      {"measurement": "increase in secretion of apoB protein by HepG2 cells", "setting": "HepG2 cells [2]; 50 ng/mL, 24 hour", "result": "approximately 8 fold"},
      {"measurement": "apoCI or CIII protein expression", "setting": "HepG2 cells [2]; 50 ng/mL, versus untreated", "result": "no difference"},
      {"measurement": "expression of secreted apoE", "setting": "HepG2 cells [2]; 50 ng/mL, versus untreated", "result": "increase"},
      {"measurement": "cellular apoB expression and secretion versus that produced by 50 ng/mL resistin", "setting": "HepG2 cells [2]; 100 ng/mL resistin, 24 hours", "result": "reduced cellular apoB expression markedly"},
      {"measurement": "reduction of LDL receptor protein expression", "setting": "HepG2 cells [3]; 25 ng/mL resistin", "result": 30, "unit": "%"},
      {"measurement": "decrease in cellular LDL receptor protein expression", "setting": "HepG2 cells [3]; 50 ng/mL resistin", "result": 40, "unit": "%"},
      {"measurement": "decrease in cellular LDL receptor protein expression", "setting": "HepG2 cells [3]; 75 ng/mL resistin", "result": 40, "unit": "%"},
      {"measurement": "increase in cellular PCSK9 protein", "setting": "HepG2 cells [3]; resistin 50 ng/mL, with lovastatin 5 μM", "result": 50, "unit": "%"},
      {"measurement": "increase in quantity of VLDL particles in a representative 100 cm^2 area", "setting": "HepG2 cells [4]", "result": 10, "unit": "fold"}
    ]}
  ]
}
